Data published in the supplement of paper PMC12338614.
± gives the uncertainty stated by the source.

B1: library; numbered along this chain (parent)
chain: MEVVDPQQLGMFTEGELMSVGMDTFIHRIDSTEVIYQPRRKRAKLIGKYLMGDLLGEGSYGKVKEVLDSETLCRRAVKILKKKKLRRIPNGEANVKKEIQLLRRLRHKNVIQLVDVLYNEEKQKMYMVMEYCVCGMQEMLDSVPEKRFPVCQAHGYFCQLIDGLEYLHSQGIVHKDIKPGNLLLTTGGTLKISDLGVAEALHPFAADDTCRTSQGSPAFQPPEIANGLDTFSGFKVDIWSAGVTLYNITTGLYPFEGDNIYKLFENIGKGSYAIPGDCGPPLSDLLKGMLEYEPAKRFSIRQIRQHSWFRKKHPPAEAPVPIPPSPDTKDRWRSMTVVPYLEDLHGADEDEDLFDIEDDIIYTQDFTVPGQVPEEEASHNGQRRGLPKAVCMNGTEAAQLSTKSRAEGRAPNPARKACSASSKIRRLSACKQQ

Variants of: B1
Assay: STK11 functional score (HeLa growth suppression), rescaled enrichment; synonymous median = 1, nonsense median = 0 (normalised score)
Conditions: with HeLa; variant type: missense
Procedure, shortened: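 Codon-randomised (POPCode) libraries of codon-optimised STK11 were integrated by Bxb1 at an AAVS1 landing pad in HeLa, in three regions each transfected three times. Integrants (BFP-negative, mCherry-positive) were FACS-sorted 4–5 days after electroporation and grown about two weeks; tiled gDNA amplicons were sequenced on NextSeq (~2 million reads per tile). The functional score is the wild-type-corrected post/pre-selection log ratio, rescaled to synonymous and nonsense medians, merged over codons and replicate transfections, with bootstrapped error.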

I29E and I29C are within error of each other in STK11 functional score: 1.4 ± 0.7 for the first, 1.41 ± 0.41 for the second.

Compared with Q137A, W239M is lower in STK11 functional score: 1.02 ± 0.15 for the first, 0.267 ± 0.092 for the second.

L290G and N266E are within error of each other in STK11 functional score: 0.0144 ± 0.1 for the first, 0.101 ± 0.94 for the second.

Going from N266I to N266M, the STK11 functional score falls from 1.38 ± 0.35 to 0.331 ± 0.095.

First: H168V
Second: H168A
The STK11 functional score of the first is lower: 0.473 ± 0.13 for the first, 1.25 ± 0.34 for the second.

L353G and L353W are within error of each other in STK11 functional score: 1.52 ± 0.15 for the first, 1.12 ± 0.64 for the second.

First: Q364E
Second: I267T
The STK11 functional score of the first is lower: 0.253 ± 0.34 for the first, 1.11 ± 0.46 for the second.

K48N and Q123C are within error of each other in STK11 functional score: 0.966 ± 0.39 for the first, 1.35 ± 0.34 for the second.

M125S and T395K are within error of each other in STK11 functional score: 0.769 ± 0.16 for the first, 0.547 ± 0.29 for the second.

Compared with L117P, L117K is higher in STK11 functional score: 0.386 ± 0.24 for the first, 1.3 ± 0.4 for the second.

First: Q100P
Second: D176A
The STK11 functional score of the first is higher: 0.999 ± 0.14 for the first, -0.0851 ± 0.1 for the second.

P315N and P315D are the same in STK11 functional score: 1.51 ± 0.16 for the first, 1.51 ± 0.16 for the second.

L263S and D365C are within error of each other in STK11 functional score: 1.18 ± 0.19 for the first, 1.51 ± 0.17 for the second.

First: D365A
Second: M11K
The STK11 functional score of the first is lower: 0.704 ± 0.15 for the first, 1.32 ± 0.44 for the second.

M11G and G91H are within error of each other in STK11 functional score: 1.4 ± 0.54 for the first, 0.418 ± 0.46 for the second.

Going from G91R to G15N, the STK11 functional score rises from 1.03 ± 0.16 to 1.69 ± 0.15.

H27G and R331G are within error of each other in STK11 functional score: 1.54 ± 0.21 for the first, 1.41 ± 0.16 for the second.

L228F and S213M are within error of each other in STK11 functional score: 1.34 ± 0.43 for the first, 1.15 ± 0.12 for the second.

Going from S213R to K178S, the STK11 functional score falls from 1.04 ± 0.3 to 0.586 ± 0.12.

Compared with E256F, K175R is higher in STK11 functional score: 0.982 ± 0.22 for the first, 1.47 ± 0.16 for the second.

Going from K175W to W308A, the STK11 functional score falls from 0.478 ± 0.09 to 0.0826 ± 0.26.

Going from K416T to S169P, the STK11 functional score falls from 1.37 ± 0.65 to 0.391 ± 0.098.

Going from G135Q to S334A, the STK11 functional score falls from 1.57 ± 0.1 to 0.943 ± 0.21.

S334E and S334I are within error of each other in STK11 functional score: 1.53 ± 0.17 for the first, 0.935 ± 0.59 for the second.

P324D and P324V are within error of each other in STK11 functional score: 1.57 ± 0.18 for the first, 1.58 ± 0.14 for the second.

P369Q and P369D are within error of each other in STK11 functional score: 1.43 ± 0.23 for the first, 1.61 ± 0.15 for the second.

T336I and T336L are within error of each other in STK11 functional score: 1.35 ± 0.33 for the first, 1.39 ± 0.15 for the second.

Y362T and Y362W are within error of each other in STK11 functional score: 1.6 ± 0.14 for the first, 1.31 ± 0.22 for the second.

S59E and S59I are within error of each other in STK11 functional score: 1.42 ± 0.18 for the first, 1.31 ± 0.42 for the second.

Compared with S59Q, P144L is lower in STK11 functional score: 1.63 ± 0.19 for the first, 0.658 ± 0.083 for the second.

T185S and L167N are within error of each other in STK11 functional score: 0.939 ± 0.26 for the first, 0.605 ± 0.12 for the second.

Compared with L167A, L167F is higher in STK11 functional score: 0.629 ± 0.09 for the first, 1.05 ± 0.23 for the second.

T13G and L72S are within error of each other in STK11 functional score: 0.27 ± 0.17 for the first, 0.585 ± 0.22 for the second.

L72W and R86A are within error of each other in STK11 functional score: 1.08 ± 0.51 for the first, 1.26 ± 0.17 for the second.

R86P and G385W are within error of each other in STK11 functional score: 1.3 ± 0.17 for the first, 1.28 ± 0.14 for the second.

G385I and S325L are within error of each other in STK11 functional score: 1.45 ± 0.25 for the first, 1.57 ± 0.25 for the second.

S325R and T328L are within error of each other in STK11 functional score: 1.58 ± 0.2 for the first, 1.03 ± 0.62 for the second.

I248M and V66L are within error of each other in STK11 functional score: 1.24 ± 0.3 for the first, 1.1 ± 0.11 for the second.

First: V66D
Second: G163A
The STK11 functional score of the first is lower: 0.0679 ± 0.17 for the first, 1.05 ± 0.2 for the second.

K44M and Y118A are within error of each other in STK11 functional score: 0.633 ± 0.17 for the first, 0.627 ± 0.21 for the second.

S283E and N119D are within error of each other in STK11 functional score: 0.826 ± 0.5 for the first, 0.736 ± 0.88 for the second.

Variant N119H has an STK11 functional score of 1.3 ± 0.22.
